Measured values published in patent publication US20150164996A1 (Sanofi, published 2015).
Read-outs that look alike come from different tables or passages of the source. Square brackets hold non-standard residues; d marks the D form. Ends that are not written are not given here. Aib = CC(C)(N)C(=O)O

T1: human GIP receptor (human, UniProt P48546 22-466)
T1 sequence (looked up): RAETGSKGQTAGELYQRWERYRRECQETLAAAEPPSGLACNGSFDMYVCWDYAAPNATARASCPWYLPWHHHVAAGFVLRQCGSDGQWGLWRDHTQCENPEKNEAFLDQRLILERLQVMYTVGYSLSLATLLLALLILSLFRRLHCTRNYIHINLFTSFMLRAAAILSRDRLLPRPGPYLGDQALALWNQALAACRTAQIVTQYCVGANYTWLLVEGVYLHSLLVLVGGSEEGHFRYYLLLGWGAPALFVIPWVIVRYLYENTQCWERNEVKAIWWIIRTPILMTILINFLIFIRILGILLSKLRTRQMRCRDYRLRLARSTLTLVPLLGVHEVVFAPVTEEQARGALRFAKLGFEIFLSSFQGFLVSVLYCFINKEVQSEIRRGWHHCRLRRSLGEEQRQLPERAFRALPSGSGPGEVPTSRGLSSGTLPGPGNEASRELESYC

B1: SEQ ID NO: 10 (peptide)
peptide: Y[Aib]EGTFTSDLSKLLEEEAVRLFIEWLKAGGPSSGAPPPS-NH2
modifications: N-terminus assumed
SMILES: CC[C@H](C)[C@H](NC(=O)[C@H](Cc1ccccc1)NC(=O)[C@H](CC(C)C)NC(=O)[C@H](CCCNC(=N)N)NC(=O)[C@@H](NC(=O)[C@H](C)NC(=O)[C@H](CCC(=O)O)NC(=O)[C@H](CCC(=O)O)NC(=O)[C@H](CCC(=O)O)NC(=O)[C@H](CC(C)C)NC(=O)[C@H](CC(C)C)NC(=O)[C@H](CCCCN)NC(=O)[C@H](CO)NC(=O)[C@H](CC(C)C)NC(=O)[C@H](CC(=O)O)NC(=O)[C@H](CO)NC(=O)[C@@H](NC(=O)[C@H](Cc1ccccc1)NC(=O)[C@@H](NC(=O)CNC(=O)[C@H](CCC(=O)O)NC(=O)C(C)(C)NC(=O)[C@@H](N)Cc1ccc(O)cc1)[C@@H](C)O)[C@@H](C)O)C(C)C)C(=O)N[C@@H](CCC(=O)O)C(=O)N[C@@H](Cc1c[nH]c2ccccc12)C(=O)N[C@@H](CC(C)C)C(=O)N[C@@H](CCCCN)C(=O)N[C@@H](C)C(=O)NCC(=O)NCC(=O)N1CCC[C@H]1C(=O)N[C@@H](CO)C(=O)N[C@@H](CO)C(=O)NCC(=O)N[C@@H](C)C(=O)N1CCC[C@H]1C(=O)N1CCC[C@H]1C(=O)N1CCC[C@H]1C(=O)N[C@@H](CO)C(N)=O
B2: SEQ ID NO: 11 (peptide)
peptide: Y[Aib]EGTFTSDLSILLEEEAVRLFIEWLKAGGPSSGAPPPS-NH2
modifications: N-terminus assumed
SMILES: CC[C@H](C)[C@H](NC(=O)[C@H](CO)NC(=O)[C@H](CC(C)C)NC(=O)[C@H](CC(=O)O)NC(=O)[C@H](CO)NC(=O)[C@@H](NC(=O)[C@H](Cc1ccccc1)NC(=O)[C@@H](NC(=O)CNC(=O)[C@H](CCC(=O)O)NC(=O)C(C)(C)NC(=O)[C@@H](N)Cc1ccc(O)cc1)[C@@H](C)O)[C@@H](C)O)C(=O)N[C@@H](CC(C)C)C(=O)N[C@@H](CC(C)C)C(=O)N[C@@H](CCC(=O)O)C(=O)N[C@@H](CCC(=O)O)C(=O)N[C@@H](CCC(=O)O)C(=O)N[C@@H](C)C(=O)N[C@H](C(=O)N[C@@H](CCCNC(=N)N)C(=O)N[C@@H](CC(C)C)C(=O)N[C@@H](Cc1ccccc1)C(=O)N[C@H](C(=O)N[C@@H](CCC(=O)O)C(=O)N[C@@H](Cc1c[nH]c2ccccc12)C(=O)N[C@@H](CC(C)C)C(=O)N[C@@H](CCCCN)C(=O)N[C@@H](C)C(=O)NCC(=O)NCC(=O)N1CCC[C@H]1C(=O)N[C@@H](CO)C(=O)N[C@@H](CO)C(=O)NCC(=O)N[C@@H](C)C(=O)N1CCC[C@H]1C(=O)N1CCC[C@H]1C(=O)N1CCC[C@H]1C(=O)N[C@@H](CO)C(N)=O)[C@@H](C)CC)C(C)C
B3: SEQ ID NO: 9 (peptide)
peptide: Y[Aib]EGTFTSDLSKLLDKEAVRLFIEWLKAGGPSSGAPPPS-NH2
modifications: N-terminus assumed
SMILES: CC[C@H](C)[C@H](NC(=O)[C@H](Cc1ccccc1)NC(=O)[C@H](CC(C)C)NC(=O)[C@H](CCCNC(=N)N)NC(=O)[C@@H](NC(=O)[C@H](C)NC(=O)[C@H](CCC(=O)O)NC(=O)[C@H](CCCCN)NC(=O)[C@H](CC(=O)O)NC(=O)[C@H](CC(C)C)NC(=O)[C@H](CC(C)C)NC(=O)[C@H](CCCCN)NC(=O)[C@H](CO)NC(=O)[C@H](CC(C)C)NC(=O)[C@H](CC(=O)O)NC(=O)[C@H](CO)NC(=O)[C@@H](NC(=O)[C@H](Cc1ccccc1)NC(=O)[C@@H](NC(=O)CNC(=O)[C@H](CCC(=O)O)NC(=O)C(C)(C)NC(=O)[C@@H](N)Cc1ccc(O)cc1)[C@@H](C)O)[C@@H](C)O)C(C)C)C(=O)N[C@@H](CCC(=O)O)C(=O)N[C@@H](Cc1c[nH]c2ccccc12)C(=O)N[C@@H](CC(C)C)C(=O)N[C@@H](CCCCN)C(=O)N[C@@H](C)C(=O)NCC(=O)NCC(=O)N1CCC[C@H]1C(=O)N[C@@H](CO)C(=O)N[C@@H](CO)C(=O)NCC(=O)N[C@@H](C)C(=O)N1CCC[C@H]1C(=O)N1CCC[C@H]1C(=O)N1CCC[C@H]1C(=O)N[C@@H](CO)C(N)=O
B4: SEQ ID NO: 8 (peptide)
peptide: Y[Aib]EGTFTSDLSKLLEKEAVRLFIEWLKAGGPSSGAPPPS-NH2
modifications: N-terminus assumed
SMILES: CC[C@H](C)[C@H](NC(=O)[C@H](Cc1ccccc1)NC(=O)[C@H](CC(C)C)NC(=O)[C@H](CCCNC(=N)N)NC(=O)[C@@H](NC(=O)[C@H](C)NC(=O)[C@H](CCC(=O)O)NC(=O)[C@H](CCCCN)NC(=O)[C@H](CCC(=O)O)NC(=O)[C@H](CC(C)C)NC(=O)[C@H](CC(C)C)NC(=O)[C@H](CCCCN)NC(=O)[C@H](CO)NC(=O)[C@H](CC(C)C)NC(=O)[C@H](CC(=O)O)NC(=O)[C@H](CO)NC(=O)[C@@H](NC(=O)[C@H](Cc1ccccc1)NC(=O)[C@@H](NC(=O)CNC(=O)[C@H](CCC(=O)O)NC(=O)C(C)(C)NC(=O)[C@@H](N)Cc1ccc(O)cc1)[C@@H](C)O)[C@@H](C)O)C(C)C)C(=O)N[C@@H](CCC(=O)O)C(=O)N[C@@H](Cc1c[nH]c2ccccc12)C(=O)N[C@@H](CC(C)C)C(=O)N[C@@H](CCCCN)C(=O)N[C@@H](C)C(=O)NCC(=O)NCC(=O)N1CCC[C@H]1C(=O)N[C@@H](CO)C(=O)N[C@@H](CO)C(=O)NCC(=O)N[C@@H](C)C(=O)N1CCC[C@H]1C(=O)N1CCC[C@H]1C(=O)N1CCC[C@H]1C(=O)N[C@@H](CO)C(N)=O
B5: Tyr(1)Ile(12)-GLP1 (peptide)
peptide: YAEGTFTSDVSIYLEGQAAKEFIAWLVKGR
modifications: ends and bridges not checked

What was measured:
Experiment in all cases: cell-based or functional assay
[1] = biological target: human glucagon receptor (human) (UniProt P47871)
[2] = biological target: human GLP-1 receptor (human) (UniProt P43220)
human GLP-1 receptor [3] = biological target: T2, human GLP-1 receptor (human, UniProt P43220 24-463)
human glucagon receptor = human glucagon receptor (human, UniProt P47871 26-477)
human GIP receptor [4] = biological target: T1, human GIP receptor
human GLP-1 receptor [5] = biological target: T2, human GLP-1 receptor; remark: listed apart in the source
Target sequence in this assay (P43220 24-463): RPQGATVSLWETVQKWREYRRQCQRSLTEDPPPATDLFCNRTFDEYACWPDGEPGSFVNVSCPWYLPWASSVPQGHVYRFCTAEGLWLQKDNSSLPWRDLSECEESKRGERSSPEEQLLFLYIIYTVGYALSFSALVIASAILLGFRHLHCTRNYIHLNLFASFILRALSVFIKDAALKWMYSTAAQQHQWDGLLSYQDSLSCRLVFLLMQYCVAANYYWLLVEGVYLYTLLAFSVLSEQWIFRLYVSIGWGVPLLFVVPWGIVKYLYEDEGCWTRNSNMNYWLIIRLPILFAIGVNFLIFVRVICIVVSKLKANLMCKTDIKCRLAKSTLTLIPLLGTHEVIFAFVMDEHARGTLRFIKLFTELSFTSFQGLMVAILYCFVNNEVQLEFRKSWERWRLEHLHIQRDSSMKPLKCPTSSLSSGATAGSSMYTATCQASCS

human GIP receptor [6] = biological target: T1, human GIP receptor; remark: listed apart in the source

Chain of human glucagon receptor (P47871 26-477): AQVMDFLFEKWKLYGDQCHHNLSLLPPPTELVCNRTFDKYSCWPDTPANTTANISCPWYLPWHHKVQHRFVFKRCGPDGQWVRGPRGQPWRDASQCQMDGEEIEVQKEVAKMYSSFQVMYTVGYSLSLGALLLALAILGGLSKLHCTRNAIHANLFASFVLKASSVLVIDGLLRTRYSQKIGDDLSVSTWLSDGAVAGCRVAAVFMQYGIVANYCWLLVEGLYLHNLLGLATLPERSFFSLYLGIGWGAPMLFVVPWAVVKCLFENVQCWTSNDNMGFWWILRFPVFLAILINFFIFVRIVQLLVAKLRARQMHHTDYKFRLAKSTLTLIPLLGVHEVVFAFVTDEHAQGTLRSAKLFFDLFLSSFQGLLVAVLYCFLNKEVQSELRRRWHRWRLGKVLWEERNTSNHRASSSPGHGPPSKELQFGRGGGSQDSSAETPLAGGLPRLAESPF
Chain of human GLP-1 receptor (human) (P43220 24-463): as the sequence (P43220 24-463) above
Chain of human glucagon receptor (human) (P47871 26-477): as the sequence (P47871 26-477) above

Molecule	EC50 hGlucagon R [pM] (cAMP formation, HTRF, HEK-293 cells) [1]	EC50 hGLP-1 R [pM] (cAMP formation, HTRF, HEK-293 cells) [2]	EC50 hGLP-1 R [pM] (cAMP formation, HTRF, HEK-293 cells) (human GLP-1 receptor [3])	EC50 hGLUC R [pM] (cAMP formation, HTRF, HEK-293 cells) (human glucagon receptor)	EC50 hGIP R [pM] (cAMP formation, HTRF, HEK-293 cells) (human GIP receptor [4])	EC50 hGLP-1 R [pM] (cAMP formation, HTRF, HEK-293 cells) (human GLP-1 receptor [5])	EC50 hGIP R [pM] (cAMP formation, HTRF, HEK-293 cells) (human GIP receptor [6])
exendin-4 (peptide)	> 1e+07 pM	0.4 pM					
B1			1 pM	137000 pM	1.3 pM		
B2			1.4 pM	529000 pM	0.9 pM		
B3			2.2 pM	149000 pM	13 pM		
B4			1.2 pM	79000 pM	2.3 pM		
B5						5 pM	3660 pM
